Test results published in a protein production outcome set (Wang et al. 2014).

Test: label from the status in PepcDB records
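Also: failed if final PepcDB status was selected cloned or expressed and not failed if soluble or beyond.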

| Sequence | protein production |
| --- | --- |
| MLSKNNFNEKLMQMNNQKAHFSIRKLTIGAASVLIGITFMGINGQTVNADEMTGNTQPEAMQVSTDKSTDATTTQQNDSDSSAQKNAAQTVEVPQNSKQDNTGETSQSTTDKKDTQVQKTESSETKADTAQSQVPPAANQTQKSADQNVENTQSPVASNTTQPKTQNDSKYNVADWGGSLNDETHEYTLNKYNGSDKENIYIPNTEDFIKAGKITDIDKVFITKDLIQNITKNGATSIVIDDQGSEDKNKVYAKGDWSNAFAGSTKLKSVDLSHLDTSQVTSMAGAFNGDTGLNDANLSGWNIQNMTNLSSLFYGANNLYNVDMSGWNFINNPNTNSMFSYADYNLKSVNLKNAKNVTDDILRIYARAIKNSNATTADLSDINLSPNVTSLHGLFSNMPDLKNVNLSGLDISHITDMGGMFSGDSNLESLDLSGLDLSKVTNTNNMFDWVGGKIKSVNITNTKSIPRSILDIYLKALSNTGTTTVDLSGINLSPNVTSLHGLFANMPNLGSANLSGLDISHITDMGGMFFNDTSLKSVNLSGLNLEKVKDLSTMFYGANNLENVDFSNTKFAPDANTNVMFAFADTKLQSVNINGTKNITREVLDAVIRAAKNSNATTLDLSGVSFSPSITSFNNLFSNMPNIESIDLTGWDTSHITDMSYMFFNDPKLKIIKGLEDFNTSNVTNMAYMFAAFNNPTTDNYDPKGLESLGHLTKLDLSNWDTSNVTNMLYMFAGQTNLTSLGDLSKWNTSKVTNMAYMFYDLKNIDDGKLDLTGWDTSNVTDMSYMFFNMFLQKDLSFVNDWNTGKVTDMSYMFANDKNLEKLDLSKWDVSSVGLKHTEQNYSLAMMFAGDTSLTTVGDISHWNTKNVHDTRQMFYNTPKLTNIDLSGWNTGKLQIAEGMFNSSGAKQINLDNWDLSNIKRITPAGYVEGKAGVGVLRGVENMFKNLTNPAVISMNKVILPDARNAFEINDFEGNKAIVVIANGQNGEALQDLLKINNQTWTDKSGNNVTGRQNSDYVTYVRADDNSNQIGQRGLNFIFTNLDDLHQYFNQVTNADNVKNDIGELSHDWDAQQDTDNNIVKITLRLSPASSYDPYSENIHAEKDGNILADLMTSKYQLHIVAPTNTTETKKPTRTIIIENPDGTTSTKEQTVEFKREVTKHVDGTEEATSWTPTSGEWTKFDVPQIAGYDSYVDGTQSKSVASEPVNKDTENVTVVITYKSNAVNPEPIIPDPVKPEVDPDKKDPQEPKTDPVTPTPDEPENPKPEKKPSNPDKRKDDNSKVVKPHGENKAAKKNHSSVEHKKTGTHTIKLSHRVAPKGTQATNGSKKSTSTVNKAADNNKNTLPQTGEKKSNAGLIGLALIALASLGLIDRKRRD | failed |
| MSLNRRELLERISEYQFACIELNLYLDNNPRDKKALDSYNRYCDKFTQAVCDYESKYGALTNFGYESSEYPWSWISEPWPWDKSFYKLEHHHHHH | not failed |
| MTENGRYEYIVIGSEAAGVGLVRELTAAGKKVLAVDKSKEKIELLEDEGFDAVIADPTDESFYRSLDLEGVSAVLITGSDDEFNLKILKALRSVSDVYAIVRVSSPKKKEEFEEAGANLVVLVADAVKQAFMDKIKKMETLKKIEKLKRIMESLRGKRLGIFTHDNPDPDSMSSAYALREIAKQFDVIADILYYGEILHQKNRAMVNLLEIPMIRAPEVDLSHYDAFAIVDSSGPGVNNSIPPDIDISIVIDHHPAEKVVAEFVDLREDVGATATILTEYIKELKITPSKILATALFFGIKSETDEFKRNTRTADFLACAFLYPFVDQDLIEKIESPSISTETLDILGTAIKNRQVYSSFLISFAGFINDRDALPQAADFLLKLEGISTVVVFGVIKDTVYVSARNKDVRIHMGEVLRRAFGDVGSAGGHAHAAGAQIPLGIFGETNEKDLLAKLITEAITKRLLSAVGMEQS | failed |
| MFDATRAAFLGVAVFISVLLVASFFSPTPGRAVEPAPAGAPAQEGSLPHDGLGSIKPIHDVDLGGVEQPPLPAPVDPDPSFNPQPPFAPGELREGFVDVGNGNIRRYLIHVGTNYQPHAPELTPVVFGFGGWKDTPEKFADYSRFGLTDFGANAMIIYPEGIARAWEGAPYAATRVGDDVHFVRTILNAVDADYRIDRSRVYAVGMSNGGGMAASLACHAPDLVAGVVSVSAAYYEPVVADCAPGAVATLDIHGTHDEVIAYQGGMRHGAPFLGAEQVVAGVAARNGCGPALPPRWIEGPAEHYGFAGCAAPVEHVRVLGQKHVWNGVPHATTLAWEFLHHQHK | failed |
| MKAKSLMVVGTTSHAGKSLLAAVICRWLAQQGYRVTPFKGQNMALNAYVTREGGEIGYAQAMQAWAAGIEPEVAMNPILLKPQGNMTSQVILRGQVVGVTRAADYYRDYFERGWQAITEALADLQQRFDWIVCEGAGSPAEINLKHRDLTNMRVATYLGAPTILVADIDRGGVFAHIVGTLMLLEPAERALIQGIVINKFRGQRSLLDSGLQWLEETTGVPVLGVIPWLERHYAAEDSLDLWDPRPQRQGADLKITVIRLPRIANFTDIDPLLAEPSVAVEFLPPHRPLGRPDAVILPGTKTTIADLQVLRETGMAEQLKTYAAQGGTILGICGGWQMLGTAISDPLGLEGCPGTYEGLGLMPLHTQLGPTKCTQQQQTQSLYFNCPEPILGYEIHQGQSEYTGDRQGWHPLFAAPELGLVNRAGTLWGTYLHGLLENGPWRRHWLNGLRSRRQLPPLPTAIPHYGEQRTVALDELTKTVMAHLNLRGICKLC | failed |
| MSVNDQITHIGKTLSTTASAFLNYQKSNSNTQDVLTNNGPYKNLLSNTVNNASSTSYFYKRTEHGRFVKNASNTFEDIYSKTRRGDVFRNKFTDNKTCFRMLTYISDDLLNEIPTKEGLKSDADGKLLTEGGENENLRKNASKKETSLFQGFKSYLPIAELAIENTERLNYDTNGTSGTVGAKDVMSKTNERDEIHTELPNFQDSFLIPPGVETKKISSSYSPSALKSFSQTLVNSLEFLNIQKNSTLSEIRDIEVEVENLRQKKEKLLGKIANIEQNQLLLEDNLKQIDDRLDFLEEYGLEVIEANSDENAEDDGMSERKALKNDAIRNEGVTTESISSEASNLPPRRRQQLRDDNSLNRLGAFYSKSKKRHRKSFPTFQQLYEPGTKIGSIMSTHDDFLTCLDFDAPFGTLCTAGYLDHTVKIWDLSKQNKIGELAGHLATINCMQINRDYGTLVTGGRDAALKLWNLNLAQQLYQETQNLTSPTNHIDSPCVHTFEAHTDEVTALSLDPSFLVSGSQDRTIRQWDLRSGKCLQTIDLSFANVLTTSTNVDLSKSTLLTQRNERPSIGALQSFDAALATGTKDGVVRLWDLRSGKVIRTLKGHTDAITSLKFDSACLVTGSYDRTVRIWDLRTGLLNKFHAYSAPVLSLDLFQENAAVVVADEPSVQIYDSEKDESWSCVEQGNETSVSTVKYKENYMVEGRENGDVNIWAV | failed |
| MASTNQELASALRMFSRFFDLIHQPLAVINERGEYVYYNQESADLDGYSIERAMGKHMLDVYPGMKETQSTMLSSLKKGVEYIGHYQIYYNARGQAVDYQHTTAPLYASDGGMVGVIEIGRNMSGVRRLQEQVVELNQLLYADHHEKHHAIITENPEMLSNIAKAKRLAASNIPVTIVGETGTGKELFSRLIHQCSKRANKPFIALNCGALPPTLIESTLFGTVRGAYTGAENSQGYLELANGGTLFLDELNAMPIEMQSKLLRFLQDKTFWRLGGQQQLHSDVRIVAAMNEAPVKLIQQERLRADLFYRLSVGMLTLPPLRARPEDIPLLANYFIDKYRNDVPQDIHGLSETARADLLNHAWPGNVRMLENAIVRSMIMQEKDGLLKHIIFEQDELNLGVPETAPENPLPSSPDPQYEGSLEVRVANYERHLIETALDTHQGNIAAAARSLNVSRTTLQYKVQKYAIRFGVVRN | failed |
| MYFGQNEACKKNHVVIHNELGPGIDLNIACRQFSIERTPSMFHTLKYKDPFYIIEFEDNNQLPHGERWYCLLSHGTRPKYWYDIEVYRQGYYPSCGQLRSWIAKQDGIWFTRRYDSPPGHVLNWKIQ | failed |
| MPFNTLAPQFSRLGPGLVLSIAATGLAFAIHTVFPAVPAMTLAVALGLLSANIPGTAVLTAGRARPGLDFAGKHLMRAGIVLLGLKVSIGDVIGLGWLSLLLIAGVVLLSFAGTYGLARLLRLPGEAALLIATGFSICGASAIGAMAAVRRIKHQDTVLPVALVTLCGTLAIGVLPLLMHPLNLNPEQFGAWTGASVHDVGQVVATAQTAGTSALAIAVVVKLTRVVLLAPVAAAAGVHQRILHVRERSNGKGDAAKSIDGRFPPIVPLFVVGFLSMVAVRSLGWVPPVGLEIAAAVQDILLATALFGLGSAVRVRTLIHTGGRAILVALGSWLLIASLGLGAAWIMIR | failed |
| ANMHIFENPSALAEALADDVGARLAAAIAARGTASLAVSGGSTPKAFFRSLSRRELDWSKVTVTLVDERFVPPENDRSNHRLVADNLLKDGAAEARFVPLYQAAETAEAAAAIASGRTASLGAPLDVVVLGMGTDGHTASFFPGGTRLEEALDPTTPRGVITMEAEGAGEPRLTFTFSSLQDAGYLVLHIEGSGKKEVLAQAEASGDEAEMPIRAMLRRAASPLQIYWAP | failed |
